The text below walks through data of US20210137977A1 (UNIVERSITY OF SOUTHERN CALIFORNIA, published 2021).

Experiment [1] concerns the target T1, human MPL (Thrombopoietin Receptor) (human, UniProt P40238 26-635).
T1 construct: whole, on cells; also called MPL on HEL.92.1.7 cells
T1 sequence (looked up): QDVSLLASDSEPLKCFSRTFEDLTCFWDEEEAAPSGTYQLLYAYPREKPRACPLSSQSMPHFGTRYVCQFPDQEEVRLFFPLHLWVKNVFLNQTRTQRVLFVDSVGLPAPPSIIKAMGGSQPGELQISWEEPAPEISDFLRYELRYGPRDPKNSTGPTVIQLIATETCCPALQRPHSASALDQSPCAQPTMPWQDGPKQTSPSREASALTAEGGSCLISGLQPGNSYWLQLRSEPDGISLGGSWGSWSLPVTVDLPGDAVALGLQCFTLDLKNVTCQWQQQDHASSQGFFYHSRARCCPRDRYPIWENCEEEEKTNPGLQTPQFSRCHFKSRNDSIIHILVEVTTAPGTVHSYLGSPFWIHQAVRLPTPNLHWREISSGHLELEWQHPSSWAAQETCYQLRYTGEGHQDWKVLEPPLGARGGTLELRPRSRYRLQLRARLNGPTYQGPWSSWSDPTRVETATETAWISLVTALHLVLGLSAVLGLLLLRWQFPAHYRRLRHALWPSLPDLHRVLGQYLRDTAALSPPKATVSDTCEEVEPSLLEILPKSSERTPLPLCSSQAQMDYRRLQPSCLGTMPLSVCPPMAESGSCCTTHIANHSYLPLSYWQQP
As to the kind of experiment: CAR expressed in MPL-bearing HEL.92.1.7 cells; staining with MPL antibody (1.6.1) or 161-scFv-Nluc.

The target of experiment [2] is T2, BCMA (human, UniProt Q02223 1-184).
T2 construct: whole, on cells; also called human BCMA; BCMA on L363 cells
T2 sequence (looked up): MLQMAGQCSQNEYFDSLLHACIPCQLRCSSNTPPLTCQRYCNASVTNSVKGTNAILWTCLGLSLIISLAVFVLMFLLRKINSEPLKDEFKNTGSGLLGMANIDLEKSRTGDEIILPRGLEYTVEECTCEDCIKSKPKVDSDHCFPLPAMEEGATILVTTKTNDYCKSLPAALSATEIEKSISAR
The experiment is described as follows: CAR stably expressed in BCMA-bearing L363 and U266 cell lines; detection reagent not named.

B1: CD8SP-MPL-hu-161-2-BBz (other)
chain: DVVMTQSPSSLSASVGDRVTITCMASEDIYIRLAWYQQKPGNAPKLLIYAATSLETGVPSRFSGSGSGTDFTLTISSLQPEDFATYYCQQYWSSPWTFGGGTKVEIKGGGGSGGGGSGGGGSQVQLQESGPGLVKPSQTLSLTCTVSGYSITSDYTWNWIRQPPGNGLEWIGYITYSGSTSYNPSLKSRVLISVDTSKNQVSLKLSSVTAADTAVYYCARLGRRYTMDYWGQGTTVTVSSTRAKPTTTPAPRPPTPAPTIASQPLSLRPEACRPAAGGAVHTRGLDFACDIYIWAPLAGTCGVLLLSLVITLYCKRGRKKLLYIFKQPFMRPVQTTQEEDGCSCRFPEEEEGGCELRVKFSRSADAPAYQQGQNQLYNELNLGRREEYDVLDKRRGRDPEMGGKPRRKNPQEGLYNELQKDKMAEAYSEIGMKGERRRGKGHDGLYQGLSTATKDTYDALHMQALPPR
notes: Second generation CAR from a humanized MPL antibody (41BB, CD3z); Entry includes the CD8 signal peptide
With B1, the binding result in experiment [1] is listed as “binds”.

B2: CD8SP-BCMA-huC13-F12-BBz (other)
chain: DIVLTQSPATLSLSPGDRATLSCRASESVTILGSHLIYWYQQKPGQAPRLLIQLASNVQTGIPARFSGSGSRTDFTLTISSLEPEDFAVYYCLQSRTIPRTFGQGTKLEIKRGGGGSGGGGSGGGGSQVQLVQSGSELKKPGESVKISCKASGYTFTHYSMNWVRQAPGQGLEWMGRINTETGEPLYADDFKGRFVFSLDTSASTAYLQISSLKAEDTAVYYCSNDYLYSLDYWGQGTLVTVSSTRAKPTTTPAPRPPTPAPTIASQPLSLRPEACRPAAGGAVHTRGLDFACDIYIWAPLAGTCGVLLLSLVITLYCKRGRKKLLYIFKQPFMRPVQTTQEEDGCSCRFPEEEEGGCELRVKFSRSADAPAYQQGQNQLYNELNLGRREEYDVLDKRRGRDPEMGGKPRRKNPQEGLYNELQKDKMAEAYSEIGMKGERRRGKGHDGLYQGLSTATKDTYDALHMQALPPR
notes: Second generation CAR (41BB, CD3z)
With B2, the binding result in experiment [2] was “binds”.
